From publication PMC6377645, “Structural insights into chaperone addiction of toxin-antitoxin systems” (Nature Communications, 2019) come the findings set out here.

The experiment concerns the target Mtb-HigA1^ΔC42 (Mtb-HigA1 deleted of the last 42 residues) (Mycobacterium tuberculosis). Kind of experiment: SEC-MALS; Superdex 200 Increase 5/150; 20 mM MES, 200 mM NaCl, pH 6.5; 15 °C; Mtb-SecB^TA 49.1 µM, Mtb-SecB^TA/HigA1 6.5 µM, Mtb-HigA1^ΔC42 100 µM. (In general: In gel filtration, larger molecules generally elute earlier.)

The term stoichiometry N denotes the number of molecules, sites or subunits per partner or assembly. “Mtb-HigA1^ΔC42 (Mtb-HigA1 deleted of the last 42 residues) (domain or fragment)” registered a stoichiometry N of 2.
